Assay results reported in article PMC11417369, “DNA sequence and chromatin differentiate sequence-specific transcription factor binding in the human malaria parasite Plasmodium falciparum”.
Changes are numbered by the printed parent chain.

T1: PF3D7_0420300 D1 (Plasmodium falciparum, UniProt Q8I1N6 1956-2015)
T1 sequence: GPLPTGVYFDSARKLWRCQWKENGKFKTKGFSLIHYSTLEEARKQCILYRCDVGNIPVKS

B1: CACACA_negctrl_site17 (dsDNA)
DNA 1: AAAAGAAAAAAAAAAAAAAAAAAAATTAAAATATAA
DNA 2: TTATATTTTAATTTTTTTTTTTTTTTTTTTTCTTTT
B2: CACACA_negctrl_site609 (dsDNA)
DNA 1: GTATATATATATATATATATATATATATATATATAT
DNA 2: B2 DNA 1 with G1A, T36C
B3: CACACA_negctrl_site892 (dsDNA)
DNA 1: TTAATATATAATAAATTTTTTTTTTTTTTTTTTTTT
DNA 2: AAAAAAAAAAAAAAAAAAAAATTTATTATATATTAA
B4: CACACA_negctrl_site1331 (dsDNA)
DNA 1: AATATAATCTTTCAAAAGAAAAAGACTTCATGAAAA
DNA 2: TTTTCATGAAGTCTTTTTCTTTTGAAAGATTATATT
B5: CACACA_negctrl_site84 (dsDNA)
DNA 1: CACACTTTTTAAATTAACGCATTTCAAAAAAAATAT
DNA 2: ATATTTTTTTTGAAATGCGTTAATTTAAAAAGTGTG
B6: CACACA_negctrl_site930 (dsDNA)
DNA 1: ACATATATATATATATATATATATATATATTCTTAA
DNA 2: TTAAGAATATATATATATATATATATATATATATGT
B7: CACACA_negctrl_site1280 (dsDNA)
DNA 1: TTATTAAGTAAATCACATTTAATTTTTTTTTTTTTT
DNA 2: AAAAAAAAAAAAAATTAAATGTGATTTACTTAATAA
B8: CACACA_negctrl_site514 (dsDNA)
DNA 1: AGATTTCAAGGTAATAGATCAATTTTAATTTGTAAA
DNA 2: TTTACAAATTAAAATTGATCTATTACCTTGAAATCT
B9: CACACA_negctrl_site165 (dsDNA)
DNA 1: TCTCAAGTTGTTAAAAAATAAAAACAATAAATCTAA
DNA 2: TTAGATTTATTGTTTTTATTTTTTAACAACTTGAGA
B10: CACACA_negctrl_site392 (dsDNA)
DNA 1: TGGTCTTTTAAACAAAAATATAAATTTTTAAATATG
DNA 2: CATATTTAAAAATTTATATTTTTGTTTAAAAGACCA
B11: CACACA_negctrl_site521 (dsDNA)
DNA 1: TAGTTCTTTTAATTTAGTATTATACAATATTGGAAA
DNA 2: TTTCCAATATTGTATAATACTAAATTAAAAGAACTA
B12: CACACA_negctrl_site1348 (dsDNA)
DNA 1: TTATTATCATCAAATCAAAAAATTCTTTTACCTGTT
DNA 2: AACAGGTAAAAGAATTTTTTGATTTGATGATAATAA
B13: CACACA_negctrl_site309 (dsDNA)
DNA 1: TTATTCCTTTTCCTTTTTTTTTTTTAACCAAAAAAA
DNA 2: TTTTTTTGGTTAAAAAAAAAAAAGGAAAAGGAATAA
B14: CACACA_negctrl_site1696 (dsDNA)
DNA 1: TTCCTTCAAAATTTAAGTAATAAGATAAAAATATAA
DNA 2: TTATATTTTTATCTTATTACTTAAATTTTGAAGGAA
B15: CACACA_negctrl_site219 (dsDNA)
DNA 1: GCAAAACATTTTTAAAATAAAAATAATAAAATATAT
DNA 2: ATATATTTTATTATTTTTATTTTAAAAATGTTTTGC
B16: CACACA_negctrl_site285 (dsDNA)
DNA 1: TATTATGTCTAAAATAACATATTAATATATTATTTC
DNA 2: GAAATAATATATTAATATGTTATTTTAGACATAATA
B17: CACACA_negctrl_site307 (dsDNA)
DNA 1: TATTCTATAAATATATTTTTTTAATTTTTTATTTTA
DNA 2: TAAAATAAAAAATTAAAAAAATATATTTATAGAATA
B18: CACACA_negctrl_site553 (dsDNA)
DNA 1: TTTTTATATTATTTAATGAGAAATAATTATAAACAA
DNA 2: TTGTTTATAATTATTTCTCATTAAATAATATAAAAA
B19: CACACA_negctrl_site1078 (dsDNA)
DNA 1: TAAATTCTTTAAAACTTTAAAACAAAAAAAAAAAAA
DNA 2: TTTTTTTTTTTTTGTTTTAAAGTTTTAAAGAATTTA
B20: CACACA_negctrl_site916 (dsDNA)
DNA 1: TTTTTAAATAACCTATATATTATTATGAAACATAAA
DNA 2: TTTATGTTTCATAATAATATATAGGTTATTTAAAAA
B21: CACACA_site8825 (dsDNA)
DNA 1: AAAAAAGATAATTATGCACACACACCCACCCACCCA
DNA 2: TGGGTGGGTGGGTGTGTGTGCATAATTATCTTTTTT
B22: CACACA_negctrl_site60 (dsDNA)
DNA 1: TTATAGGTTCTATACATATATTTATATATGTACAGA
DNA 2: TCTGTACATATATAAATATATGTATAGAACCTATAA
B23: CACACA_negctrl_site1763 (dsDNA)
DNA 1: AAAAAAAAATATACATATATATATATATATATATAT
DNA 2: ATATATATATATATATATATATGTATATTTTTTTTT
B24: CACACA_site8429 (dsDNA)
DNA 1: TAAGAAATAAATAGTACACACATAGACACCCACCCA
DNA 2: TGGGTGGGTGTCTATGTGTGTACTATTTATTTCTTA
B25: CACACA_negctrl_site1833 (dsDNA)
DNA 1: TAATATTTTTATTATTAGAATTGTATATGTTTAATA
DNA 2: TATTAAACATATACAATTCTAATAATAAAAATATTA
B26: CACACA_negctrl_site1137 (dsDNA)
DNA 1: ATTATAAAAGAATTTTTTTTTATTTCATTAAAATAT
DNA 2: ATATTTTAATGAAATAAAAAAAAATTCTTTTATAAT
B27: CACACA_site319 (dsDNA)
DNA 1: TATGTAACCTGTTTTACACACCCCCACCCCCCTCTT
DNA 2: AAGAGGGGGGTGGGGGTGTGTAAAACAGGTTACATA
B28: CACACA_negctrl_site27 (dsDNA)
DNA 1: TTTTTTGGGTAAAATTATAAAATATGTATATATAAA
DNA 2: TTTATATATACATATTTTATAATTTTACCCAAAAAA
B29: CACACA_negctrl_site1272 (dsDNA)
DNA 1: ATTTTTTTTTTTTTTTTTTTTTTTTAGATTAAGAAA
DNA 2: TTTCTTAATCTAAAAAAAAAAAAAAAAAAAAAAAAT
B30: CACACA_negctrl_site1320 (dsDNA)
DNA 1: TTTTAAAACAATGAGATTCCTTTCTTTTTTTCTTTT
DNA 2: AAAAGAAAAAAAGAAAGGAATCTCATTGTTTTAAAA
B31: CACACA_site2222 (dsDNA)
DNA 1: GGAAAAAATATATGCACACCCCCCAAAAAAAAAAAA
DNA 2: TTTTTTTTTTTTGGGGGGTGTGCATATATTTTTTCC
B32: CACACA_site2373 (dsDNA)
DNA 1: ATGTTCTTTAAAACCACACACCCCCCAACCCCCCTC
DNA 2: GAGGGGGGTTGGGGGGTGTGTGGTTTTAAAGAACAT
B33: CACACA_negctrl_site1550 (dsDNA)
DNA 1: TAAAATTAATAAAATATTTTCACTTAATATATATAA
DNA 2: TTATATATATTAAGTGAAAATATTTTATTAATTTTA
B34: CACACA_negctrl_site1830 (dsDNA)
DNA 1: ATGGACATTTTATAAATCACAATGGATATTTTATAA
DNA 2: TTATAAAATATCCATTGTGATTTATAAAATGTCCAT
B35: CACACA_negctrl_site510 (dsDNA)
DNA 1: TAATATCTAAAAAATATATTTTTTATTTTTTATTAA
DNA 2: TTAATAAAAAATAAAAAATATATTTTTTAGATATTA
B36: CACACA_negctrl_site10 (dsDNA)
DNA 1: AAATCACAAAAAAAAAAAAAAATATATATATATATA
DNA 2: TATATATATATATATTTTTTTTTTTTTTTGTGATTT
B37: CACACA_negctrl_site1120 (dsDNA)
DNA 1: TCTCAAAAAAAAAAAAAAAAAAAAAAATTAAAAAAT
DNA 2: ATTTTTTAATTTTTTTTTTTTTTTTTTTTTTTGAGA
B38: CACACA_negctrl_site571 (dsDNA)
DNA 1: TTTGTAATAAACTACTTTTTTTTTTTTTTTTTTTTT
DNA 2: AAAAAAAAAAAAAAAAAAAAAGTAGTTTATTACAAA
B39: CACACA_negctrl_site641 (dsDNA)
DNA 1: TCTTGACGAAGTAGAAGGATATATATATAAAAAAAA
DNA 2: TTTTTTTTATATATATATCCTTCTACTTCGTCAAGA
B40: CACACA_negctrl_site681 (dsDNA)
DNA 1: CACAAAGGTCTGAAATTTTAGGGGTGCCTGGGACTA
DNA 2: TAGTCCCAGGCACCCCTAAAATTTCAGACCTTTGTG
B41: CACACA_negctrl_site1522 (dsDNA)
DNA 1: TTTTTATGTTATCAAATAAATATAAATATAATTCAT
DNA 2: ATGAATTATATTTATATTTATTTGATAACATAAAAA
B42: CACACA_negctrl_site232 (dsDNA)
DNA 1: AAACAAAATTTATTTCAAAGTTAATAATTTTTATGT
DNA 2: ACATAAAAATTATTAACTTTGAAATAAATTTTGTTT
B43: CACACA_negctrl_site1218 (dsDNA)
DNA 1: TAATTTTTTTTTTTTTTTTTTTTTTTTTTTTTTTTA
DNA 2: TAAAAAAAAAAAAAAAAAAAAAAAAAAAAAAAATTA
B44: CACACA_negctrl_site558 (dsDNA)
DNA 1: TTTTTTATATTAAATGAAGAATATACAAAATTTTAA
DNA 2: TTAAAATTTTGTATATTCTTCATTTAATATAAAAAA

These binders were tested against T1, PF3D7_0420300 D1 (assay: gcPBM; about 25 ug protein; PBS, 1% milk, 0.2 mg/ml BSA, salmon testes DNA, 0.03% Triton X-100). Conditions: tags: N-terminal GST (pGEX-4T-1), kept; label: surface-attached array probe.
In the case of B1, the binding signal is reported as 8.84 ln median PBM intensity, better of two orientations.
For B2, the binding signal was 8.9 ln median PBM intensity, better of two orientations.
With B3 the binding signal was 8.85 ln median PBM intensity, better of two orientations.
B4 was tested, and the binding signal was 8.86 ln median PBM intensity, better of two orientations.
With B5 the binding signal was 8.95 ln median PBM intensity, better of two orientations.
In the case of B6, the binding signal is reported as 8.93 ln median PBM intensity, better of two orientations.
With B7 the binding signal was 8.82 ln median PBM intensity, better of two orientations.
B8 was tested, and the binding signal was 8.83 ln median PBM intensity, better of two orientations.
In the case of B9, the binding signal is reported as 8.93 ln median PBM intensity, better of two orientations.
With B10 the binding signal was 8.76 ln median PBM intensity, better of two orientations.
B11 was tested, and the binding signal was 8.91 ln median PBM intensity, better of two orientations.
With B12 the binding signal was 8.94 ln median PBM intensity, better of two orientations.
With B13 the binding signal was 8.9 ln median PBM intensity, better of two orientations.
With B14 the binding signal was 8.8 ln median PBM intensity, better of two orientations.
In the case of B15, the binding signal is reported as 8.88 ln median PBM intensity, better of two orientations.
With B16 the binding signal was 8.94 ln median PBM intensity, better of two orientations.
With B17 the binding signal was 8.77 ln median PBM intensity, better of two orientations.
For B18, the binding signal was 8.82 ln median PBM intensity, better of two orientations.
In the case of B19, the binding signal is reported as 8.74 ln median PBM intensity, better of two orientations.
With B20 the binding signal was 8.75 ln median PBM intensity, better of two orientations.
For B21, the binding signal was 10.6 ln median PBM intensity, better of two orientations.
In the case of B22, the binding signal is reported as 8.89 ln median PBM intensity, better of two orientations.
In the case of B23, the binding signal is reported as 8.93 ln median PBM intensity, better of two orientations.
B24 was tested, and the binding signal was 10.6 ln median PBM intensity, better of two orientations.
For B25, the binding signal was 8.92 ln median PBM intensity, better of two orientations.
With B26 the binding signal was 8.74 ln median PBM intensity, better of two orientations.
With B27 the binding signal was 10.7 ln median PBM intensity, better of two orientations.
With B28 the binding signal was 8.81 ln median PBM intensity, better of two orientations.
In the case of B29, the binding signal is reported as 8.84 ln median PBM intensity, better of two orientations.
In the case of B30, the binding signal is reported as 8.89 ln median PBM intensity, better of two orientations.
B31 was tested, and the binding signal was 10.7 ln median PBM intensity, better of two orientations.
With B32 the binding signal was 10.6 ln median PBM intensity, better of two orientations.
In the case of B33, the binding signal is reported as 8.87 ln median PBM intensity, better of two orientations.
B34 was tested, and the binding signal was 8.96 ln median PBM intensity, better of two orientations.
For B35, the binding signal was 8.86 ln median PBM intensity, better of two orientations.
B36 was tested, and the binding signal was 8.95 ln median PBM intensity, better of two orientations.
In the case of B37, the binding signal is reported as 8.78 ln median PBM intensity, better of two orientations.
With B38 the binding signal was 8.96 ln median PBM intensity, better of two orientations.
For B39, the binding signal was 8.88 ln median PBM intensity, better of two orientations.
With B40 the binding signal was 8.87 ln median PBM intensity, better of two orientations.
B41 was tested, and the binding signal was 8.91 ln median PBM intensity, better of two orientations.
For B42, the binding signal was 8.93 ln median PBM intensity, better of two orientations.
With B43 the binding signal was 8.72 ln median PBM intensity, better of two orientations.
In the case of B44, the binding signal is reported as 8.73 ln median PBM intensity, better of two orientations.
